{"source": "paper PMC5003816", "binders": {"B1": {"name": "UBQLN2 (mouse, endogenous, wild type), Q9QZM0 mP520T (protein)", "chain": "MAENGESSGPPRPSRGPAAAPGAASPPAEPKIIKVTVKTPKEKEEFAVPENSTVQQFKEAISKRFKSQTDQLVLIFAGKILKDQDTLMQHGIHDGLTVHLVIKSQNRPQGQATTQPSTTAGTSTTTTTTTTAAAPAATTSSAPRSSSTPTTTNSSSFGLGSLSSLSNLGLNSPNFTELQNQMQQQLLASPEMMIQIMENPFVQSMLSNPDLMRQLIMANPQMQQLIQRNPEISHLLNNPDIMRQTLEIARNPAMMQEMMRNQDLALSNLESIPGGYNALRRMYTDIQEPMLNAAQEQFGGNPFATVGSSSTSGEGTQPSRTENRDPLPNPWAPPPTTQTAATTTTTTTTSSGSGSGSSSSSTTAGNTMAAANYVASIFSTPGMQSLLQQITENPQLIQNMLSAPYMRSMMQSLSQNPDMAAQMMLSSPLFTSNPQLQEQMRPQLPNFLQQMQNPETIAAMSNPRAMQALMQIQQGLQTLATEAPGLIPSFAPGVGMGVLGTAITPVGPVTPIGPIGPIVTFTPIGPIGPIGPTGPASSPGSTGTGIPPATTVSSSAPTETISPTSESGPNQQFIQQMVQALTGGSPPQPPNPEVRFQQQLEQLNAMGFLNREANLQALIATGGDINAAIERLLGSQPS"}}, "molecular_target": "HSP70 (mouse, endogenous), Q61696", "sequence (Q61696 whole entry)": "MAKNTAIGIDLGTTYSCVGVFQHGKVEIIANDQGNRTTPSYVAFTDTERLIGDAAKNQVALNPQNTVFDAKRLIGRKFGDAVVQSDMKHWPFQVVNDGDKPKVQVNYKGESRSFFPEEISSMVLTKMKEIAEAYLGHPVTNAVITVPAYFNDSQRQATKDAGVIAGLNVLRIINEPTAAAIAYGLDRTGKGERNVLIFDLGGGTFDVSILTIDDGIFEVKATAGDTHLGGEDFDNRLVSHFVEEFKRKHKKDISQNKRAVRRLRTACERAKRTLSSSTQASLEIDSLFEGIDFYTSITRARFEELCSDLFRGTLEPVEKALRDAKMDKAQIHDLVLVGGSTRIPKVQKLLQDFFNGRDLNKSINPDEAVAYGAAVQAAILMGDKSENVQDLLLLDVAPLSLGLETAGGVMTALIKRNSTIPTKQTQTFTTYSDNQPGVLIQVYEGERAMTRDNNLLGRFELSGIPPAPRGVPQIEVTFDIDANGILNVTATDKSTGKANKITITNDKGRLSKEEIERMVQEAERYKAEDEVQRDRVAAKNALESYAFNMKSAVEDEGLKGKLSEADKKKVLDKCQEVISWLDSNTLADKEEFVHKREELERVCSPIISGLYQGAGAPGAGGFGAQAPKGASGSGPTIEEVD", "experiment": "UBQLN2 IP and western blot quantification (primary MEFs)", "settings": "chain shown with the change; n = 3; read off a plot"}
{"binder": "B1", "values": [{"measurement": "ratio to parent", "result": 0.38}]}
